What was measured:
[1] = biological target: VLP2 (virus-like particles, capsid protein particles of AAV serotype 2) (AAV serotype 2 (AAV2)) (UniProt P03135); assay: ELISA on immobilised VLP2 (purified protein, 5 µg/mL); A450 after 1:1 1 M NaOH with 1 mM CaCl2, 30°C, 30 min divided by A450 at 0 time
[2] = biological target: VLP2 (virus-like particles, capsid protein particles of AAV serotype 2) (AAV serotype 2 (AAV2)) (UniProt P03135); assay: ELISA on immobilised VLP2 (purified protein, 5 µg/mL); A450 after 1:1 1 M NaOH with 1 mM CaCl2, 30°C, 60 min divided by A450 at 0 time
[3] = biological target: VLP2 (virus-like particles, capsid protein particles of AAV serotype 2) (AAV serotype 2 (AAV2)) (UniProt P03135); assay: ELISA on immobilised VLP2 (purified protein, 5 µg/mL); A450 after 1:1 1 M NaOH with 1 mM CaCl2, 30°C, 20 min divided by A450 at 0 time
[4] = biological target: VLP2 (virus-like particles, capsid protein particles of AAV serotype 2) (AAV serotype 2 (AAV2)) (UniProt P03135); assay: ELISA on immobilised VLP2 (purified protein, 5 µg/mL); start of alkali treatment, the reference of the ratio
[5] = biological target: VLP2 (virus-like particles, capsid protein particles of AAV serotype 2) (AAV serotype 2 (AAV2)) (UniProt P03135); assay: ELISA on immobilised VLP2 (culture supernatant); A450 after 1:1 1 M NaOH, 15 min, 30°C divided by A450 untreated
[6] = biological target: VLP2 (virus-like particles, capsid protein particles of AAV serotype 2) (AAV serotype 2 (AAV2)) (UniProt P03135); assay: ELISA on immobilised VLP2 (purified protein); A450 after 1:1 0.5 M NaOH, 30°C, 90 min divided by A450 at 0 time
[7] = biological target: VLP2 (virus-like particles, capsid protein particles of AAV serotype 2) (AAV serotype 2 (AAV2)) (UniProt P03135); assay: ELISA on immobilised VLP2 (purified protein, 5 µg/mL); A450 after 1:1 1 M NaOH with 1 mM CaCl2, 30°C, 30 min divided by A450 at 0 time; remark: listed apart in the source
[8] = biological target: VLP2 (virus-like particles, capsid protein particles of AAV serotype 2) (AAV serotype 2 (AAV2)) (UniProt P03135); assay: ELISA on immobilised VLP2 (purified protein); A450 after 1:1 0.5 M NaOH, 30°C, 30 min divided by A450 at 0 time
[9] = biological target: VLP2 (virus-like particles, capsid protein particles of AAV serotype 2) (AAV serotype 2 (AAV2)) (UniProt P03135); assay: ELISA on immobilised VLP2 (purified protein, 5 µg/mL); A450 after 1:1 1 M NaOH with 1 mM CaCl2, 30°C, 60 min divided by A450 at 0 time; remark: listed apart in the source
[10] = biological target: VLP2 (virus-like particles, capsid protein particles of AAV serotype 2) (AAV serotype 2 (AAV2)) (UniProt P03135); assay: ELISA on immobilised VLP2 (purified protein); start of alkali treatment, the reference of the ratio
[11] = biological target: VLP2 (virus-like particles, capsid protein particles of AAV serotype 2) (AAV serotype 2 (AAV2)) (UniProt P03135); assay: ELISA on immobilised VLP2 (purified protein, 5 µg/mL); A450 after 1:1 1 M NaOH with 1 mM CaCl2, 30°C, 45 min divided by A450 at 0 time
[12] = biological target: VLP2 (virus-like particles, capsid protein particles of AAV serotype 2) (AAV serotype 2 (AAV2)) (UniProt P03135); assay: ELISA on immobilised VLP2 (purified protein, 5 µg/mL); A450 after 1:1 1 M NaOH with 1 mM CaCl2, 30°C, 30 min divided by A450 at 0 time; remark: listed apart in the source
[13] = biological target: VLP2 (virus-like particles, capsid protein particles of AAV serotype 2) (AAV serotype 2 (AAV2)) (UniProt P03135); assay: ELISA on immobilised VLP2 (purified protein, 5 µg/mL); A450 after 1:1 1 M NaOH with 1 mM CaCl2, 30°C, 60 min divided by A450 at 0 time; remark: listed apart in the source
[14] = biological target: VLP2 (virus-like particles, capsid protein particles of AAV serotype 2) (AAV serotype 2 (AAV2)) (UniProt P03135); assay: ELISA on immobilised VLP2 (purified protein, 5 µg/mL); A450 after 1:1 1 M NaOH with 1 mM CaCl2, 30°C, 30 min divided by A450 at 0 time; remark: listed apart in the source
[15] = biological target: VLP2 (virus-like particles, capsid protein particles of AAV serotype 2) (AAV serotype 2 (AAV2)) (UniProt P03135); assay: ELISA on immobilised VLP2 (culture supernatant, anti-His detection); A450 after 1:1 0.5 M NaOH, 30 min, 30°C divided by A450 untreated
[16] = biological target: VLP2 (virus-like particles, capsid protein particles of AAV serotype 2) (AAV serotype 2 (AAV2)) (UniProt P03135); assay: ELISA on immobilised VLP2 (purified protein); A450 after 1:1 0.5 M NaOH, 30°C, 30 min divided by A450 at 0 time; remark: listed apart in the source
[17] = biological target: VLP2 (virus-like particles, capsid protein particles of AAV serotype 2) (AAV serotype 2 (AAV2)) (UniProt P03135); assay: ELISA on immobilised VLP2 (purified protein); A450 after 1:1 0.5 M NaOH, 30°C, 60 min divided by A450 at 0 time
[18] = biological target: VLP2 (virus-like particles, capsid protein particles of AAV serotype 2) (AAV serotype 2 (AAV2)) (UniProt P03135); assay: ELISA on immobilised VLP2 (culture supernatant); A450 after 1:1 0.1 M glycine-NaOH pH 10.0, 15 min, 51.3°C divided by A450 untreated
[19] = biological target: VLP2 (virus-like particles, capsid protein particles of AAV serotype 2) (AAV serotype 2 (AAV2)) (UniProt P03135); assay: ELISA on immobilised VLP2 (purified protein); A450 after 1:1 0.1 M glycine-NaOH pH 10.0, 15 min, 55.7°C divided by A450 untreated
[20] = biological target: VLP2 (virus-like particles, capsid protein particles of AAV serotype 2) (AAV serotype 2 (AAV2)) (UniProt P03135); assay: ELISA on immobilised VLP2 (purified protein); A450 after 1:1 0.1 M glycine-NaOH pH 10.0, 15 min, 66.1°C divided by A450 untreated
[21] = biological target: VLP2 (virus-like particles, capsid protein particles of AAV serotype 2) (AAV serotype 2 (AAV2)) (UniProt P03135); assay: ELISA on immobilised VLP2 (purified protein); A450 after 1:1 0.1 M glycine-NaOH pH 10.0, 15 min, 70°C divided by A450 untreated
[22] = biological target: VLP2 (virus-like particles, capsid protein particles of AAV serotype 2) (AAV serotype 2 (AAV2)) (UniProt P03135); assay: ELISA on immobilised VLP2 (purified protein); A450 after 1:1 0.1 M glycine-NaOH pH 10.0, 15 min, 60.1°C divided by A450 untreated

Chain of UniProt P03135 (P03135 whole entry): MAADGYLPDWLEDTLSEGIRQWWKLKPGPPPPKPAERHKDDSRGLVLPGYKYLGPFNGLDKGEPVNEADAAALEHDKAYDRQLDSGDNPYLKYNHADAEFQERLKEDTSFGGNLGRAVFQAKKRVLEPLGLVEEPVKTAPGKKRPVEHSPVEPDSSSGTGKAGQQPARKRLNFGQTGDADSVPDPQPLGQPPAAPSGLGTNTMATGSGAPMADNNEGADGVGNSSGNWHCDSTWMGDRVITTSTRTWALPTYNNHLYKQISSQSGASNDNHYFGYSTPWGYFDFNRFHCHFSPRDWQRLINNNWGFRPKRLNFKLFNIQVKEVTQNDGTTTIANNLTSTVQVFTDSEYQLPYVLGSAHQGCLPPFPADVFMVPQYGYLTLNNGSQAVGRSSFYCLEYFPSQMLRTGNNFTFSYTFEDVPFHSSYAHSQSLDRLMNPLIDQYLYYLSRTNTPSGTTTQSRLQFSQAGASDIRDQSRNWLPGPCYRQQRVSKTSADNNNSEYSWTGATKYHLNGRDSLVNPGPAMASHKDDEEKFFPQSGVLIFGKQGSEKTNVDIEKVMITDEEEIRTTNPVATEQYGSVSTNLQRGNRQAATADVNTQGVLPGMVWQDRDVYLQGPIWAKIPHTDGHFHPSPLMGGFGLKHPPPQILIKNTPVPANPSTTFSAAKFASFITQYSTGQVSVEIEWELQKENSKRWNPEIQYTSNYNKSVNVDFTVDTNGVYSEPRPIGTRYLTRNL

Binder	Remaining activity [%] [2]	Remaining activity [%] [4]	Remaining activity [%] [6]	Remaining activity [%] [7]	Remaining activity [%] [8]	Remaining activity [%] [10]	Remaining activity [%] [13]	Remaining activity [%] [14]	Remaining activity [%] [16]	Remaining activity [%] [17]	Remaining activity [%] [18]	further results
AVR25c (AVR25a with K467N) (receptor) MGSAGESDQITLPKHEAQLKVYVLLVPPKGEASTYDWQLITHPRDYSGEMEGEHSQILKLSNLTPGLYEYRAVVEGQNAHSEGYVNVTVEPGPRKNRPPIAIVSPQFQEISLPTTSAVIDGSQSTDDDKIVQYHWEELKGPLREEKISEDTPILKLSNLVPGNYTFRLTVVDTDGATDSTTADLTVNKAVDHHHHHH	1.96%	100%	66.9%	16.3%	91.2%	100%	2.19%	22%	–	–	–	Remaining activity [%] [1]: 5.28%; Remaining activity [%] [3]: 12.1%; Remaining activity [%] [5]: 33.5%; Remaining activity [%] [9]: 0.197%; Remaining activity [%] [11]: 0%; Remaining activity [%] [12]: 2.87%
AVR31 (AVR25c with G314D, I366F, V394A, K455R, K497E, V499I) (receptor) MGSADESDQITLPKHEAQLKVYVLLVPPKGEASTYDWQLITHPRDYSGEMEGEHSQFLKLSNLTPGLYEYRAVVEGQNAHSEGYANVTVEPGPRKNRPPIAIVSPQFQEISLPTTSAVIDGSQSTDDDKIVQYHWEELKGPLREERISEDTPILKLSNLVPGNYTFRLTVVDTDGATDSTTADLTVNEAIDHHHHHH	13.3%	100%	–	53.8%	–	–	10.6%	48.3%	–	–	–	–
AAV-binding protein AVR21 (receptor) MGSAGESDQITLPKHEAQLNVYVLLVPPKGEASTYDWQLITHPRDYSGEMEGEHSQILKLSNLTPGLYEYRAVVEGQNAHSEGYVNVTVEPEPRKNRPPIAIVSPQFQEISLPTTSTVIDGSQSTDDDKIVQYHWEELKGPLREEKISEDTAILKLSQLVPGNYTFRLTVVDTDGATDSTTADLTVNKAVDHHHHHH	0.694%	100%	–	1.53%	–	100%	–	–	16.9%	0%	–	Remaining activity [%] [15]: 26.2%
AVR8g with Y331H, F379S, K467N, A491T (receptor) MGSAGESDQITLPKNEVQLNAHVLQEPPKGETCTYDWQLITHPRDYSGEMEGEHSQILKLSNLTPGLYESKVIVEGQNAHSEGYVNVTVEPEPRKNRPPIAIVSPQFQEISLPTTSTVIDGSQSTDDDKIVQYHWEELKGPLREEKISEDTAILKLSNLVPGNYTFRLTVVDSDGATDSTTTNLTVNKAVDHHHHHH	–	–	–	–	–	–	–	–	–	–	28.1%	–
AAV-binding protein AVR8g (receptor) MGSAGESDQITLPKNEVQLNAYVLQEPPKGETCTYDWQLITHPRDYSGEMEGEHSQILKLSNLTPGLYEFKVIVEGQNAHSEGYVNVTVEPEPRKNRPPIAIVSPQFQEISLPTTSTVIDGSQSTDDDKIVQYHWEELKGPLREEKISEDTAILKLSKLVPGNYTFRLTVVDSDGATDSTTANLTVNKAVDHHHHHH	–	–	–	–	–	–	–	–	–	–	8.8%	Remaining activity [%] [19]: 0.837%; Remaining activity [%] [20]: 0%; Remaining activity [%] [21]: 3.77%; Remaining activity [%] [22]: 4.18%
AVR25a (AVR21 with N329K, E401G, T426A, A461P) (receptor) MGSAGESDQITLPKHEAQLKVYVLLVPPKGEASTYDWQLITHPRDYSGEMEGEHSQILKLSNLTPGLYEYRAVVEGQNAHSEGYVNVTVEPGPRKNRPPIAIVSPQFQEISLPTTSAVIDGSQSTDDDKIVQYHWEELKGPLREEKISEDTPILKLSQLVPGNYTFRLTVVDTDGATDSTTADLTVNKAVDHHHHHH	–	–	0%	–	62.3%	100%	–	–	100%	47.9%	–	–

From EP4717706A1
